The target in the test is T1, recombinant protein GP Zaire ebolavirus (H. sapiens-wt/GIN/2014/Kissidougou-C15 strain) (Zaire ebolavirus, …, UniProt X5HMX4, strain).
T1 construct: also called EBOV GP; recombinant EBOV GP
Put plainly: ELISA; indirect ELISA; […] (1 ug/ml) […]. The note with it: both partners purified. (In general: ELISA stands for enzyme-linked immunosorbent assay.)

B1: control antibody MAb114 (antibody, V domains shown)
VH: EVQLVESGGGLIQPGGSLRLSCAASGFALRMYDMHWVRQTIDKRLEWVSAVGPSGDTYYADSVKGRFAVSRENAKNSLSLQMNSLTAGDTAIYYCVRSDRGVAGLFDSWGQGILVTVSS
VL: DIQMTQSPSSLSASVGDRITITCRASQAFDNYVAWYQQRPGKVPKLLISAASALHAGVPSRFSGSGSGTHFTLTISSLQPEDVATYYCQNYNSAPLTFGGGTKVEIK
On to B1, for which the binding result is “binds”.

For the origin of these results see paper PMC8807537 (Acta Naturae, 2021).
